The record followed here is PMC7053772, “Characterization and assembly of the Pseudomonas aeruginosa aspartate transcarbamoylase-pseudo dihydroorotase complex” (PLoS ONE, 2020).

T1: P. aeruginosa ATCase-pDHO complex (Pseudomonas aeruginosa, UniProt Q59653)
T1 construct: gene pyrB; both full-length subunits with N-terminal 6xHis tag (pETite), E. coli BL21(DE3), Ni-purified, mixed 1:1; 37 kDa + 45 kDa, 457 kDa dodecamer; with Dihydroorotase-like protein
T1 sequence (Q59653 1-334): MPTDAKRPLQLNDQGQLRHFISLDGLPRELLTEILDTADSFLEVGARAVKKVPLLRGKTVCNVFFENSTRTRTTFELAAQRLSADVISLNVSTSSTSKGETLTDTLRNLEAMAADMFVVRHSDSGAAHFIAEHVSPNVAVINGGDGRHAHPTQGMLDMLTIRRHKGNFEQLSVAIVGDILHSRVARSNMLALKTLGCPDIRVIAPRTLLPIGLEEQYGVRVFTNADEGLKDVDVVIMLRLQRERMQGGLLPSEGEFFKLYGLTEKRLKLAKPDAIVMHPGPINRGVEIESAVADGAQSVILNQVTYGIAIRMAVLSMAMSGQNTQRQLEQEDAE
T1 sequence (Q51551 1-423 partner): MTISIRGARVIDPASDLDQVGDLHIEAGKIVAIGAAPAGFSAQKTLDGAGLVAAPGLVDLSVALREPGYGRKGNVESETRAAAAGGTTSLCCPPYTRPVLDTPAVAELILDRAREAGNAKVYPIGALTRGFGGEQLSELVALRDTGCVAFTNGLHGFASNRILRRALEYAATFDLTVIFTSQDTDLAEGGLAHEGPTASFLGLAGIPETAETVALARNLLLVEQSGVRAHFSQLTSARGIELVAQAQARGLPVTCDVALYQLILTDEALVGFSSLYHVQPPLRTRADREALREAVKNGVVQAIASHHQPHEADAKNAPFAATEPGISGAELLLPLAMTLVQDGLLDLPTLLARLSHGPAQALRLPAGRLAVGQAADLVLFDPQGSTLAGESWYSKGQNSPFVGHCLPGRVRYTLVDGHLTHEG

B1: Pseudomonas aeruginosa aspartate transcarbamoylase catalytic chain (enzyme, Pseudomonas aeruginosa (strain PAO1), UniProt Q59653 1-334, looked up)
chain: T1 sequence (Q59653 1-334)
notes: Aspartate transcarbamoylase (ATCase) catalytic chain of Pseudomonas aeruginosa strain PAO1, gene pyrB; about 36-37 kDa; The pyrB gene was amplified by PCR and put into pETite; Removal of the His tag is not mentioned; also called ATCase; ATCase subunit
B2: Pseudomonas aeruginosa pseudo dihydroorotase (natural protein, Pseudomonas aeruginosa (strain PAO1), UniProt Q51551 1-423, looked up)
chain: T1 sequence (Q51551 1-423 partner)
notes: Dimer by size exclusion chromatography; also called pDHO; pseudo-DHO; source: also co-transformed and co-purified with mutant ATCases

The target of data set [1] is T1, P. aeruginosa ATCase-pDHO complex. Nature of the data set: colorimetric ATCase assay, carbamoyl phosphate saturation curves. It is filed as biochemical. The following applies: 8 mM aspartate, 37°C; PALA 0-500 nM; bisubstrate inhibitor.
The target in data set [2] is B2. Put plainly: SEC; complex reconstituted by mixing equimolar amounts of ATCase and pDHO; Superdex S-200, 50 mM Tris-HCl pH 7.5, 200 mM NaCl; fractions on SDS-PAGE. The following applies: both partners purified. Background: In gel filtration, larger molecules generally elute earlier.
Substrate in data set [3]: N[C@@H](CC(=O)O)C(=O)O
Nature of the data set: purified protein. It is filed as biochemical, Pseudomonas aeruginosa. The following applies: 10 mM carbamoyl phosphate, 50 mM Tris/acetate pH 8.3, 37°C, Hill fit.

Substrate in data set [4]: NC(=O)OP(=O)(O)O
Nature of the data set: purified protein. The following applies: 8 mM aspartate, 50 mM Tris/acetate pH 8.3, 37°C, Hill fit, text b47 prints 2.5 mM, Table 3 (0 ATP series) 0.88 ± 0.03 mM. The data set is classed as biochemical, Pseudomonas aeruginosa.

Data set [5] deals with the molecule itself. Nature of the data set: SEC; each Ni2+ column purified protein applied alone; Superdex S-200, 50 mM Tris-HCl pH 7.5, 200 mM NaCl; 2-mL sample of 5-10 mg/ml; calibrated column.
The target of data set [6] is B1. Nature of the data set: cell-based or functional assay.

For `O=C(O)C[C@H](NC(=O)CP(=O)(O)O)C(=O)O` [N-phosphonacetyl-L-aspartate], the “colorimetric ATCase assay, carbamoyl phosphate saturation curves” value in data set [1] is given as “N-phosphonacetyl-L-aspartate is also a potent inhibitor of the of the P. aeruginosa enzyme”.

Usually Vmax stands for the top rate of the reaction or transport when substrate is in excess. Broadly, the kcat is the maximal rate divided by the concentration of active sites. As usually defined, the kcat/Km is the second-order rate constant that governs catalysis at low substrate concentration. Take B1: the binding result in data set [2] is “binds”. Also, in “purified protein [3]”, the K0.5 is listed as 3.6 ± 0.41 mM, the Vmax came out at 183 µmol/min/mg, the kcat stood at 113 s⁻¹ and the kcat/Km came to 31000 M⁻¹ s⁻¹. Further, in “purified protein [4]”, the K0.5 came out at 2.8 ± 0.18 mM, the Vmax was found to be 142 µmol/min/mg, the kcat stood at 87.6 s⁻¹ and the kcat/Km was 31000 M⁻¹ s⁻¹.

One may read the stoichiometry N as the number of molecules, sites or subunits per partner or assembly. As to B2, in data set [5], the “stoichiometry N” value was 2. Besides, the “ATCase activity of a fixed amount of ATCase (4 ug) titrated with pDHO (0-24.3 ug); molar ratio of ATCase to pDHO at which the activity levels off” value in data set [6] stood at 0.97 mol pDHO per mol ATCase.
